Assay results from IntAct's records for PubMed 16777958.

B1: Activated CDC42 kinase 1 (Mus musculus), O54967 (parent)
chain: MQPEEGTGWLLELLSEVQLQQYFLRLRDDLNITRLSHFEYVKNEDLEKIGMGRPGQRRLWEAVKRRKAMCKRKSWMSKVFSGKRLEAEFPSQHSQSTFRKPSPTPGSLPGEGTLQSLTCLIGEKDLRLLEKLGDGSFGVVRRGEWDAPAGKTVSVAVKCLKPDVLSQPEAMDDFIREVNAMHSLDHRNLIRLYGVVLTLPMKMVTELAPLGSLLDRLRKHQGHFLLGTLSRYAVQVAEGMAYLESKRFIHRDLAARNLLLATRDLVKIGDFGLMRALPQNDDHYVMQEHRKVPFAWCAPESLKTRTFSHASDTWMFGVTLWEMFTYGQEPWIGLNGSQILHKIDKEGERLPRPEDCPQDIYNVMVQCWAHKPEDRPTFVALRDFLLEAQPTDMRALQDFEEPDKLHIQMNDVITVIEGRAENYWWRGQNTRTLCVGPFPRNVVTSVAGLSAQDISQPLQNSFIHTGHGDSDPRHCWGFPDRIDELYLGNPMDPPDLLSVELSTSRPTQHLGRVKREPPPRPPQPAIFTQKTTYDPVSEDPDPLSSDFKRLGLRKPALPRGLWLAKPSARVPGTKADRSSGGEVTLIDFGEEPVVPTPRPCAPSLAQLAMDACSLLDKTPPQSPTRALPRPLHPTPVVDWDARPLPPPPAYDDVAQDEDDFEVCSINSTLVGAGLPAGPSQGETNYAFVPEQAQMPPALEDNLFLPPQGGGKPPSSVQTAEIFQALQQECMRQLQVPTGQLTPSPTPGGDDKPQVPPRVPIPPRPTRPRVELSPAPSGEEETSRWPGPASPPRVPPREPLSPQGSRTPSPLVPPGSSPLPHRLSSSPGKTMPTTQSFASDPKYATPQVIQAPGPRAGPCILPIVRDGRKVSSTHYYLLPERPPYLERYQRFLREAQSPEEPAALPVPPLLPPPSTPAPAAPTATVRPMPQAAPDPKANFSTNNSNPGARPPSLRAAARLPQRGCPGDGQEAARPADKVQMLQAMVHGVTTEECQAALQSHSWSVQRAAQYLKVEQLFGLGLRPRVECHKVLEMFDWNLEQAGCHLLGSCGPAHHKR

Variants of: B1
Conditions: with NCK1, P16333-1

Variant | effect of a mutation on the interaction
K158A | disrupting interaction strength
